Data taken from article PMC6249252, “COMP and TSP-4 interact specifically with the novel GXKGHR motif only found in fibrillar collagens” (Scientific Reports, 2018).

Molecular target: collagen type XI (UniProt P12107 36-1563; P13942 28-1736, hydroxyproline/hydroxylysine expected in native collagen; preparation and processing not stated; alpha3(XI) taken as COL2A1 product)
Experiment: ELISA; collagen model peptide or collagen XI coated; COMP or TSP-4 at indicated concentrations in TBS-T with 0.25% BSA, 1 h, room temperature; detected with anti-COMP or anti-TSP-4 antibody; four-parameter logistic fit; apparent KD
Conditions: both partners purified

Kd: 20 nM
B1: cartilage oligomeric matrix protein (COMP), wild type, pentameric (natural protein)
chain: not shown
notes: cartilage oligomeric matrix protein (COMP, TSP-5); residue numbers Asp593-Asp595 as in PDB 3FBY; also called COMP wt; TSP-5; source: HEK293 (EBNA), pCEP vector, serum-free supernatant, purified (Strep-Tactin)
